The text below walks through data of patent US20120213763A1 (COUNCIL OF SCIENTIFIC AND INDUSTRIAL RESEARCH, published 2012).

“And” between values parts separate entries of the source, which are not always exact repeats. Equal entries are not always repeated.

Data set [1] addresses T1, bi-pegylated NC 1-414 (SEQ ID NO 491), Cys at N - 1 and at C + 1 position in SK.
T1 chain: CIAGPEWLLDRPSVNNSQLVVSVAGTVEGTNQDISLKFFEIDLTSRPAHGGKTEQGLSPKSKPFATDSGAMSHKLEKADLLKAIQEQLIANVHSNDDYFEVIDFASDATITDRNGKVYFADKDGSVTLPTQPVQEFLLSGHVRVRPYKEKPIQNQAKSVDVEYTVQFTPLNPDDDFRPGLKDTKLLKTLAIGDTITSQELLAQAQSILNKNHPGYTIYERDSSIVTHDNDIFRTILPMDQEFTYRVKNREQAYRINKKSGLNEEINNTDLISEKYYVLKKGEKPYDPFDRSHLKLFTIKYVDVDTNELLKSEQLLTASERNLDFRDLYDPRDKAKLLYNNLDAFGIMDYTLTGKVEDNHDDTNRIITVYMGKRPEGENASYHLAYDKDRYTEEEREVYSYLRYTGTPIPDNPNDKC

Data set [2] addresses PEG Variants of SEQ ID NO 23 (PEGylated Cysteine variants of fibrin domain fusion form of SK).
The target of data set [3] is PEG Variants of SEQ ID NO 24 (PEGylated Cysteine variants of fibrin domain fusion form of SK).
For data set [4], the target named is T2, PEGylated SK D95C (SEQ ID NO 30).
T2 chain: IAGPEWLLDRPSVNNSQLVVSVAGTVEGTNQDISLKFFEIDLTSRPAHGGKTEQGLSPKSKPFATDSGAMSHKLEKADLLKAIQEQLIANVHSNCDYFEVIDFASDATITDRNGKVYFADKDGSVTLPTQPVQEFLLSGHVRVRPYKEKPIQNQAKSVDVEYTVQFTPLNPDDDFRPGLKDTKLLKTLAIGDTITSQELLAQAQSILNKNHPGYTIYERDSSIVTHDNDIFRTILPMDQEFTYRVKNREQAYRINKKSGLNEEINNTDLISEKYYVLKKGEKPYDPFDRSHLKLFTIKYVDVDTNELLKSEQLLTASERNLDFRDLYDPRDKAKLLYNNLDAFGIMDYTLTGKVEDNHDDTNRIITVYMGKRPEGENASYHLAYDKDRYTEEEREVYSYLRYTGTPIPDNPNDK

In data set [5] the target is T3, PEGylated SK C-Cys (SEQ ID NO 490), Cys at C + 1 position in SK.
T3 chain: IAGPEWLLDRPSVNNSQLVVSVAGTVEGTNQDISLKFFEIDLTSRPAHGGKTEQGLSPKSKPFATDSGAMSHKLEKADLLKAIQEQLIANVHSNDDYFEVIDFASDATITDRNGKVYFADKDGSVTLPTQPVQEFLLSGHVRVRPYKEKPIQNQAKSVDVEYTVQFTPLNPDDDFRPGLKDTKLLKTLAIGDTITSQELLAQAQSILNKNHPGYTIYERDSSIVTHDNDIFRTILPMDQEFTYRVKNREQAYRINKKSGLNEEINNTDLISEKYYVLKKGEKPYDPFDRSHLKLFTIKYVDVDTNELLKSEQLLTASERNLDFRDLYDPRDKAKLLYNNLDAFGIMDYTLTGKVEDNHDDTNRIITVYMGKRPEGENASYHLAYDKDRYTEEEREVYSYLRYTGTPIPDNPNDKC

For data set [6], the target named is T4, native streptokinase nSK (1-414) ATCC 12449 (SEQ ID NO 1).
T4 chain: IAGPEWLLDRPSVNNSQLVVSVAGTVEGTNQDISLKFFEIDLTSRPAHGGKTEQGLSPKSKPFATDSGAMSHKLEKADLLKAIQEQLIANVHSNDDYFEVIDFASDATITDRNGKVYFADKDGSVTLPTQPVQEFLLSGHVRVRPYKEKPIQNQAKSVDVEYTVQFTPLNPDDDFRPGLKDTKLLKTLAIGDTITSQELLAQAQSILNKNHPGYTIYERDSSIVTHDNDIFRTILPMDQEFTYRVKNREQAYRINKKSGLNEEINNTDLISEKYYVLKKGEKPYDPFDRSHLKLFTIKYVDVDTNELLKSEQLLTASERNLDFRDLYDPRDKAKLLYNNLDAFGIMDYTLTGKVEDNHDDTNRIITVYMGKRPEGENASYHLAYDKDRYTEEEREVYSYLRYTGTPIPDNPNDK

Data set [7] has as its target T5, PEGylated SK D102C (SEQ ID NO 32).
T5 chain: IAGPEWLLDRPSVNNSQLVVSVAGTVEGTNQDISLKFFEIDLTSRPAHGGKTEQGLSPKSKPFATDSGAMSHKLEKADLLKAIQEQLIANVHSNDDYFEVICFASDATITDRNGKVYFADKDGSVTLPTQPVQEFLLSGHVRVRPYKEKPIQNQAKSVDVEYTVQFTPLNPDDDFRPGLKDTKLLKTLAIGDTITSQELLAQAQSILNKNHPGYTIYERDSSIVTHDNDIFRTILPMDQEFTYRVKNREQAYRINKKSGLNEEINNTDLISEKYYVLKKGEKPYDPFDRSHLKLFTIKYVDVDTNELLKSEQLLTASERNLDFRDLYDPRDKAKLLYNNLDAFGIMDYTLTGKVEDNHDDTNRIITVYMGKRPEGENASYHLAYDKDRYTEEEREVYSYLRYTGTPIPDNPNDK

B1: human plasminogen (HPG) (protein)
chain: KVYLSECKTGNGKNYRGTMSKTKNGITCQKWSSTSPHRPRFSPATHPSEGLEENYCRNPDNDPQGPWCYTTDPEKRYDYCDILECEEECMHCSGENYDGKISKTMSGLECQAWDSQSPHAHGYIPSKFPNKNLKKNYCRNPDRELRPWCFTTDPNKRWELCDIPRCTTPPPSSGPTYQCLKGTGENYRGNVAVTVSGHTCQHWSAQTPHTHNRTPENFPCKNLDENYCRNPDGKRAPWCHTTNSQVRWEYCKIPSCDSSPVSTEQLAPTAPPELTPVVQDCYHGDGQSYRGTSSTTTTGKKCQSWSSMTPHRHQKTPENYPNAGLTMNYCRNPDADKGPWCFTTDPSVRWEYCNLKKCSGTEASVVAPPPVVLLPDVETPSEEDCMFGNGKGYRGKRATTVTGTPCQDWAAQEPHRHSIFTPETNPRAGLEKNYCRNPDGDVGGPWCYTTNPRKLYDYCDVPQCAAPSFDCGKPQVEPKKCPGRVVGGCVAHPHSWPWQVSLRTRFGMHFCGGTLISPEWVLTAAHCLEKSPRPSSYKVILGAHQEVNLEPHVQEIEVSRLFLEPTRKDIALLKLSSPAVITDKVIPACLPSPNYVVADRTECFITGWGETQGTFGAGLLKEAQLPVIENKVCNRYEFLNGRVQSTELCAGHLAGGTDSCQGDSGGPLVCFEKDKYILQGVTSWGLGCARPNKPGVYVRVSRFVTWIEGVMRNN
A word on the Km: it is the concentration of substrate that gives half-maximal velocity. Take B1: the Km is 0.42 µM in data set [1]; 0.24 µM and 0.63 µM in data set [2]; 0.48 µM in data set [3]; 0.5 µM in data set [4]; 0.4 µM in data set [5]; 0.4 µM and 0.45 µM in data set [6]. Besides, the Km in data set [7] is 0.5 µM.
